From patent US20080219970 come the findings set out here.

The data set has as its target T1, Ir-CPI (Ixodes ricinus Contact Phase Inhibitor), recombinant, without its peptide signal.
T1 chain: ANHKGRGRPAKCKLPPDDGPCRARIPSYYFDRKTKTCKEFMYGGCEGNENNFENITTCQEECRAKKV

B1: factor Xa (protein)
chain 1: ANSFLEEMKKGHLERECMEETCSYEEAREVFEDSDKTNEFWNKYKDGDQCETSPCQNQGKCKDGLGEYTCTCLEGFEGKNCELFTRKLCSLDNGDCDQFCHEEQNSVVCSCARGYTLADNGKACIPTGPYPCGKQTLER
chain 2: IVGGQECKDGECPWQALLINEENEGFCGGTILSEFYILTAAHCLYQAKRFKVRVGDRNTEQEEGGEAVHEVEVVIKHNRFTKETYDFDIAVLRLKTPITFRMNVAPACLPERDWAESTLMTQKTGIVSGFGRTHEKGRQSTRLKMLEVPYVDRNSCKLSSSFIITQNMFCAGYDTKQEDACQGDSGGPHVTRFKDTYFVTGIVSWGEGCARKGKYGIYTKVTAFLKWIDRSMKTRGLPKAKSHAPEVITSSPLK
In the case of B1, the “amidolytic activity (chromogenic substrate S-2222), protease preincubated with Ir-CPI at 1:5 molar ratio” value is reported as “The results obtained did not show any effect of Ir-CPI protein on the amidolytic activity of these factors”.

B2: factor XIIa (protein)
chain: IPPWEAPKEHKYKAEEHTVVLTVTGEPCHFPFQYHRQLYHKCTHKGRPGPQPWCATTPNFDQDQRWGYCLEPKKVKDHCSKHSPCQKGGTCVNMPSGPHCLCPQHLTGNHCQKEKCFEPQLLRFFHKNEIWYRTEQAAVARCQCKGPDAHCQRLASQACRTNPCLHGGRCLEVEGHRLCHCPVGYTGAFCDVDTKASCYDGRGLSYRGLARTTLSGAPCQPWASEATYRNVTAEQARNWGLGGHAFCRNPDNDIRPWCFVLNRDRLSWEYCDLAQCQTPTQAAPPTPVSPRLHVPLMPAQPAPPKPQPTTRTPPQSQTPGALPAKREQPPSLTRNGPLSCGQRLRKSLSSMTRVVGGLVALRGAHPYIAALYWGHSFCAGSLIAPCWVLTAAHCLQDRPAPEDLTVVLGQERRNHSCEPCQTLAVRSYRLHEAFSPVSYQHDLALLRLQEDADGSCALLSPYVQPVCLPSGAARPSETTLCQVAGWGHQFEGAEEYASFLQEAQVPFLSLERCSAPDVHGSSILPGMLCAGFLEGGTDACQGDSGGPLVCEDQAAERRLTLQGIISWGSGCGDRNKPGVYTDVAYYLAWIREHTVS
Turning to B2, the “activation of factor XI into factor XIa by factor XIIa, reconstituted system with purified factors, chromogenic substrate” value is “Ir-CPI inhibits ... the activation of factor XI into factor XIa by factor XIIa”; the “activation of prekallikrein into kallikrein by factor XIIa, reconstituted system with purified factors, chromogenic substrate” value was “Ir-CPI inhibits the activation of prekallikrein into kallikrein by factor XIIa”; the “amidolytic activity (chromogenic substrate S-2302), protease preincubated with Ir-CPI at 1:5 molar ratio” value is given as “The results obtained did not show any effect of Ir-CPI protein on the amidolytic activity of these factors”.
